Patent US20230094463A1, “ANTIBODIES THAT DISRUPT THE INTERACTION OF GAL3 AND INSULIN RECEPTOR OR INTEGRINS AND METHODS OF USE THEREOF” (TrueBinding, Inc., priority 2019, published 2023)

How the values were obtained:
[1] = system: NOD/ShiLtJ mice; details: 10 mg/kg twice a week
Excerpt: To assess the therapeutic potential of anti-GAL3 antibody in Type I diabetes, a mouse model of diabetes type I was used. Briefly, seven-weeks-old female NOD/ShiLtJ mice (Jackson lab (001976)) and control group animals NOR/LtJ (Jackson Lab (002050)) were housed in standard disposable cages with filter tops at room temperature with a 6:00-18:00 day-night cycle. Mice were allowed to rest for a week before initiating glucose monitoring. The antibody treatment was initiated when glucose levels reach 250-400 (mg/dL) for two consecutive days. To establish glucose levels, the blood samples were collected from tail vein of the experimental animals following housing in clean cages with water and no food for 4-6 hours. The collected samples were analyzed by HemoCue Glucose 201 Analyzer and cuvettes (Mercedes Scientific 110706). […] At the end stage, the plasma samples were collected from symptomatic animals. C-peptide levels were determined by Alpco Mouse C-peptide ELISA kit (Alpco, 80-CPTMS-E01).

[2] = system: Gal3 peptides (SEQ ID NOs: 3-26); assay: Gal3 peptide library binding ELISA (epitope mapping); set-up: species or system human; details: Peptide 8 (SEQ ID NO: 10)
Experimental: (§1) To identify the epitopes to which Gal3 antibodies with and without Gal3-INSR blocking activity bound, a library of 24 amino acid peptides representing portions of Gal3, depicted in FIG. 27, was produced and the ability of each peptide to bind Gal3 antibodies was evaluated by ELISA. At least 2 μg/ml of hGal3 peptide in 50 μl of PBS or 0.1 μg/ml of full-length human Gal3 protein (GenScript) and human Galectin-3 protein (Acro Biosystems, GA3-H5129) were diluted in PBS (Corning, 21-030-CM) to concentrations of at least 2 μg/ml or 0.1 μg/ml, respectively, and added to the wells of a 96-well ELISA plate (Thermo Fisher, 44-2404-21). After incubating the plate at 4° C. overnight, the plate was washed three times with PBST (PBS with 0.05% Tween 20 [VWR, 0777]). The plate was then blocked for an hour with 2% BSA (EMD Millipore, 126609) in PBST at room temperature with gentle rocking. Thereafter, the 2% BSA in PBST was discarded and human Galectin-3 hybridoma supernatants or antibodies were diluted in 2% BSA in PBST to concentrations of at least 0.1 μg/ml and added to the wells. The plate was incubated for an hour at room temperature with gentle rocking and then washed three times with PBST. Afterwards, Goat Anti-Mouse IgG-HRP (Jackson ImmunoResearch, 115-036-1461) or Goat Anti-Rat IgG HRP (Abcam, ab205720) diluted in 2% BSA in PBST (1:4000) were added to the wells. The plate was incubated for 30 minutes to 1 hour at room temperature with gentle rocking and then washed three times with PBST. TMB substrate (Thermo Scientific, 34029) was then added to each well. The reaction was stopped with 1M HCl (JT Baker, 5620-02) and read using a plate reader (Molecular Devices) at absorbance of 450 nm.
(§2) Human Gal3 peptides (LifeTein, custom order) and human Gal3 proteins (R&D Systems, 8259-GA; TrueBinding, QCB200349) were diluted in PBS (Corning, 21-030-CM) to concentrations of at least 100 μg/mL (peptides) or 1 μg/mL (proteins), and added to the wells of several 96-well ELISA plates (Thermo Fisher, 44-2404-21). After incubating the plates at 4° C. overnight, the plates were washed three times with PBST (PBS with 0.05% Tween 20 [VWR, 0777]). The plates were then blocked for an hour with 2% BSA (EMD Millipore, 126609) in PBST at room temperature with gentle rocking. Thereafter, the 2% BSA in PBST was discarded and Gal3-binding antibodies (reformatted hIgG4 [S228P]) were diluted in 2% BSA in PBST to concentrations of 5 μg/mL and added to the wells. The plates were incubated for an hour at room temperature with gentle rocking and then washed three times with PBST. Afterwards, Peroxidase AffiniPure F(ab′)2 Fragment Goat Anti-Human IgG (H+L) polyclonal antibody (Jackson ImmunoResearch, 109-036-003), was diluted in 2% BSA in PBST (1:4000) and added to the wells. The plates were incubated for 1 hour at room temperature with gentle rocking and then washed three times with PBST. TMB substrate (Thermo Scientific, 34029) was then added to each well. The reaction was stopped with 1M HCl (JT Baker, 5620-02) and read using a plate reader (Molecular Devices) at absorbance of 450 nm.

[3] = target: T1, Gal3 peptides (SEQ ID NOs: 3-26) (Homo sapiens, UniProt P17931); assay: as above
T1 construct: a library of 24 amino acid peptides representing portions of Gal3; purchased LifeTein custom order
Experimental: as §1, §2

[4] = target: T2, human Gal3 (Homo sapiens, UniProt P17931); assay: Antibody binning assays (competition for binding to Gal3); details: binning per Examples 3 and 18
T2 construct: His; purchased AcroBio GA3-H5129
Experimental: To determine whether Gal3-binding antibodies with Gal3-INSR blocking activity bind to the same or overlapping regions of the Gal3 molecule, antibody binning assays were performed to assess the ability of antibodies to simultaneously bind Gal3. Amine-reactive probes were loaded onto a Gator biosensor (Probe Life, Palo Alto, Calif.), equilibrated in dH20 for 60 seconds, dipped into 100 μl EDC 0.2M/NHS 0.05M activation buffer for 30 seconds, then dipped into a solution of […] human Gal3-His in 10 mM NaOAc buffer, pH 5 until binding was saturated, and quenched in 1 M ethanolamine pH 8.5 for 300 seconds. Following Gal3-His loading, tips were dipped in 20 μg/mL saturating antibody, then successively dipped into 5 μg/mL competing antibody.
The epitope binning assay was done in a sandwich format on the high-throughput SPR-based Carterra LSA unit (CarterraBio, Salt Lake City, Utah). First, the purified antibodies were diluted to 10 μg/ml concentration in 10 mM NaOAc (pH 5.0) and then were covalently coupled via amine group to HC200M chip activated by EDC and S-NHS to immobilize antibodies to different positions of a 384-spot array. One hundred thirty-eight binning cycles were run on the array of immobilized antibodies. In each cycle, first, human Gal3 (AcroBio GA3-H5129) was injected over the entire array to bind to different antibodies (primary antibody), followed by one antibody (secondary antibody) selected among the panel of 150 anti-GAL3 antibodies tested. At the end of each cycle, the array was regenerated by 10 mM Glycine (pH 2.0) to remove bound antigen and secondary antibody from the array. The data analysis was done using the Epitope software by CarterraBio.

[5] = system: Jurkat T cell adhesion; assay: Jurkat T cell adhesion assay on Gal-3/antibody coated plates; type: cell-based; details: recombinant Gal-3 pre-incubated with antibody, 10^5 cells per well
Experimental: To evaluate whether anti-GAL3 antibodies that block GAL3 interaction with integrin negatively influence lymphocyte homing (an important aspect in development of inflammatory diseases), a cell-based assay utilizing lymphocyte Jurkat T cell line was employed. Briefly, recombinant Gal-3 ([…] in PBS) and antibody ([…] in PBS) were incubated for 30 minutes on ice prior to the coating mixture transfer to the 96-well plate and additional overnight incubation. The coating mixture was then removed and the plate was blocked with 0.5% BSA for 45 minutes. Jurkat T cells (10^5 cells per well) were plated in serum free RPMI. Following thirty-minute incubation, the cells were gently washed once with serum free medium and fixed with 4% PFA for 10 minutes. The adhered cells were further stained with SYTOX™ Orange Nucleic Acid staining (ThermoFisher, S11368) and analyzed by Cytation 1 Cell Imaging Multi-Mode Reader (Biotek).

T2 sequence (P17931 whole entry): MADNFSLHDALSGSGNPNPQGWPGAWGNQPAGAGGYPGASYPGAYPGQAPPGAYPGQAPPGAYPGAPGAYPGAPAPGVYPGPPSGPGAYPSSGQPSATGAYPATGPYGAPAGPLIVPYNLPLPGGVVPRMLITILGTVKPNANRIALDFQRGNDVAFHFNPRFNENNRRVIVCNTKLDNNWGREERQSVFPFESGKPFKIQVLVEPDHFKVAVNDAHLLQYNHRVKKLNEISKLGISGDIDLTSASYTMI

Molecule | levels of blood glucose [1] | survival [1] | C-peptide levels ([1]; plasma ELISA) | binding to Gal3 Peptide 8 [2] | binding to Gal3 Peptide 1 ([3]; Peptide 1 (SEQ ID NO: 3), amino acids 1-20 of Gal3) | binding to Gal3 Peptide 6 ([3]; Peptide 6 (SEQ ID NO: 8), amino acids 51-70 of Gal3) | binding to Gal3 Peptide 7 ([3]; Peptide 7 (SEQ ID NO: 9), amino acids 61-80 of Gal3) | epitope bin (competitive binding to Gal3) [4] | inhibition of Jurkat T cell adhesion [5]
mTB001: anti-GAL3 antibody used in mouse models (antibody) heavy: QIQLVQSGPELKKPGETVKISCKASGYTFTNYGMNWVKQAPGKGLKWMGWINTNTGEPTYVEEFKGRFAFSLETSASTAYLQINNLKNEDTATYFCAPYDNFFAYWGQGTLVTVSAAKTTPPSVYPLAPVCGDTTGSSVTLGCLVKGYFPEPVTLTWNSGSLSSGVHTFPAVLQSDLYTLSSSVTVTSSTWPSQSITCNVAHPASSTKVDKKIEPRGPTIKPCPPCKCPAPNAAGGPSVFIFPPKIKDVLMISLSPIVTCVVVDVSEDDPDVQISWFVNNVEVHTAQTQTHREDYNSTLRVVSALPIQHQDWMSGKEFKCKVNNKDLGAPIERTISKPKGSVRAPQVYVLPPPEEEMTKKQVTLTCMVTDFMPEDIYVEWTNNGKTELNYKNTEPVLDSDGSYFMYSKLRVEKKNWVERNSYSCSVVHEGLHNHHTTKSFSRTPGK light: DIVITQDELSNPVTSGESVSISCRSSKSLLYKDGKTYLNWFLQRPGQSPQLLIYLMSTHASGVSDRFSGSGSGTDFTLEISRVKAEDVGVYYCQQLVDYPLTFGAGTKLELKRADVAPTVSIFPPSSEQLTSGGASVVCFLNNFYPKDINVKWKIDGSERQNGVLNSWTDQDSKDSTYSMSSTLTLTKDEYERHNSYTCEATHKTSTSPIVKSFNRNEC | stabilizing the levels of blood glucose | prolonged survival | restoring C-peptide levels |  |  |  |  |  | 
23H9.2E4: anti-Gal3 monoclonal antibody (antibody, V domains shown) VH: QIQLVQSGPELKKPGETVKISCKASGYTFTTYAMSWVKQAPGKGLKWMGWINTYSGVPTYADDLKGRFAFSLETSASTAYLQINNLKNEDTATYFCARGPYAMDYWGQGTSVTVSS VL: DIQMTQTTSSLSASLGDRVTISCSASQGINNYLNWYQQKPDGTVKLLIYYASSLHSGVPSRFSGSGSGTDYSLTISNLEPEDIATYYCQQYSQVPYTFGSGTKLEIK |  |  |  | bind | bind and bound | bind and bound | bind and bound | bin 3 | did not inhibit
